Laboratory results published in article PMC12680531.
Numbering of substitutions follows the chain as printed. Numbers in names are those of the source. One block for each binder: values may come before it.

Biological target: T1, cell surface TM4SF4 of human cancer cell lines, P48230
T1 chain: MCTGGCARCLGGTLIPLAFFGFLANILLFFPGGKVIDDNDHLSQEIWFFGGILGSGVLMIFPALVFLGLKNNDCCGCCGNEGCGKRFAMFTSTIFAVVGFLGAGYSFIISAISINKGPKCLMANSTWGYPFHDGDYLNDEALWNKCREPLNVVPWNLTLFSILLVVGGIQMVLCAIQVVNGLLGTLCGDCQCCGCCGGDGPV
Experiment: flow cytometry on cells
Settings: chain shown with the change, n = 3, parent: est. 100, read off a plot

percent of parent (A549 cells): 97% | percent of parent (Calu-3 cells): 87%
B1: humanized 2B7 antibody Hz2B7-1.1 L:N31V (protein)
chain 1: EITLKESGPTLVKPTQTLTLTCTFSGFSLSTYGIGVSWIRQPPGKALEWLAHIWWNDNKYYNTALKSRLTITKDTSKNQVVLTMTNMDPVDTATYYCARKEGSSAPFAYWGQGTLVTVSS
chain 2: DIVMTQSPDSLAVSLGERATINCKSSQSLLVSSNQKNYLAWYQQKPGQPPKLLIYFASTRESGVPDRFSGSGSGTDFTLTISLMQAEDVAVYYCQQHYRTPPTFGQGTKVEIK

percent of parent (A549 cells): 130% | percent of parent (Calu-3 cells): 100%
B2: humanized 2B7 antibody Hz2B7-1.1 L:N31F (protein)
chain 1: B1 chain 1
chain 2: B1 chain 2 with V31F
